# Measured values from paper PMC11402785, “Structural basis for activity switching in polymerases determining the fate of let-7 pre-miRNAs” (Nature Structural & Molecular Biology, 2024).
# Residue numbers refer to the chain shown, from its start.
# T1: TUT4 (ZCCHC11);LIN28A (Homo sapiens;Homo sapiens, UniProt Q5TAX3;Q9H9Z2 254-1315;1-209, |)
# T1 sequence 1: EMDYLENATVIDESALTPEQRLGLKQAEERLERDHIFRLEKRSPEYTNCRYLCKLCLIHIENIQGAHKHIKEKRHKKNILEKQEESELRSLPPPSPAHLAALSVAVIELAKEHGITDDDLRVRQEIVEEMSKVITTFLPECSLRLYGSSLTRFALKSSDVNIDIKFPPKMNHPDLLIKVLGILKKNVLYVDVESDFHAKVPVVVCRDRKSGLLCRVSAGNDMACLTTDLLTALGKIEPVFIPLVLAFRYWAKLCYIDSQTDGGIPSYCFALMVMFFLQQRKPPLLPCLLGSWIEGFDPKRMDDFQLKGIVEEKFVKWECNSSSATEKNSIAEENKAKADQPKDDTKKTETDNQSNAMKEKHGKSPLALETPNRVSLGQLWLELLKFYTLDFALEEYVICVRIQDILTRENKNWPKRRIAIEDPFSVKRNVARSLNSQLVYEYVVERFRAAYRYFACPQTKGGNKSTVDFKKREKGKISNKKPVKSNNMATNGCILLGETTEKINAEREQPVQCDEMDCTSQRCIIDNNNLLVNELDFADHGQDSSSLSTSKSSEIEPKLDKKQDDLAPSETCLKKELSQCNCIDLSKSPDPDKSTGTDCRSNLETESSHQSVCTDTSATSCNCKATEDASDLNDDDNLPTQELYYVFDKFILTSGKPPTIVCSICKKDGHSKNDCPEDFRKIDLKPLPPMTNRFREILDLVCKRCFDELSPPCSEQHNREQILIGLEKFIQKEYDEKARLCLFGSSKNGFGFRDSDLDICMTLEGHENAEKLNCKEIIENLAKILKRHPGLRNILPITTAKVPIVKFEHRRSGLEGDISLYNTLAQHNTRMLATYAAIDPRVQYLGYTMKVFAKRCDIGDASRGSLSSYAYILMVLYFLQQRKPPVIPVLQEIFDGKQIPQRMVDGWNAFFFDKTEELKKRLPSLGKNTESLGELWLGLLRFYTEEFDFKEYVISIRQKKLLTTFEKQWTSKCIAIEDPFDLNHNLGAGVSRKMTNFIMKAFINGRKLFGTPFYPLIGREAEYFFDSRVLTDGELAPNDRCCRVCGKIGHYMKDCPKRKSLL
# T1 sequence 2: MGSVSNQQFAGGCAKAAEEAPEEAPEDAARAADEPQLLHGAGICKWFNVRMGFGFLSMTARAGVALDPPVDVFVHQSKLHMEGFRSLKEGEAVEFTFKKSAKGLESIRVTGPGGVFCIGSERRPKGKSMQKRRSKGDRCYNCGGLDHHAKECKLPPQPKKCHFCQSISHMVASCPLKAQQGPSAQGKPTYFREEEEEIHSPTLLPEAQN
# T2: TUT4 K919/K920 mutant (ZK1);LIN28A (Homo sapiens;Homo sapiens, UniProt Q5TAX3;Q9H9Z2 254-1315;1-209, K919A;K920A|)
# T2 sequence 1: T1 sequence 1 with K666A, K667A
# T2 sequence 2: T1 sequence 2
# B1: pre-let-7g (structured_RNA)
# RNA: UGAGGUAGUAGUUUGUACAGUUUGAGGGUCUAUGAUACCACCCGGUACAGGAGAUAACUGUACAGGCCACUGCCUUGC
# B2: pre-let-7g_3'CY (structured_RNA)
# RNA: B1 RNA
# Legend:
# TUT4 (ZCCHC11);LIN28A [1] = target: T1, TUT4 (ZCCHC11);LIN28A; assay: cryo-EM; Zn2+; ternary capture state, 3.68 A; EMSA: 20 mM HEPES pH 7.8, 100 mM NaCl, 2 mM CaCl2, 50 uM ZnCl2, 5% glycerol, 5 mM DTT, 0.5 mM UTP, RNase inhibitor, on ice 30 min; 0.1 uM RNA, 0.2 uM TUT, 0.3 uM LIN28A; native gel in 1x TBE at 4 C; details: protein: recombinant;recombinant; tags: N-term His6-GST (TEV cleavable), C-term twin-Strep;N-term His6-GST fusion; copies: 1;1; hairpin, 1 nt 3' overhang
# TUT7 (ZCCHC6);LIN28A = TUT7 (ZCCHC6);LIN28A (Homo sapiens;Homo sapiens, UniProt Q5VYS8;Q9H9Z2 1-1495;1-209, |); assay: cryo-EM; Zn2+; ternary conformation I, 3.81 A; EMSA: 20 mM HEPES pH 7.8, 100 mM NaCl, 2 mM CaCl2, 50 uM ZnCl2, 5% glycerol, 5 mM DTT, 0.5 mM UTP, RNase inhibitor, on ice 30 min; 0.1 uM RNA, 0.2 uM TUT, 0.3 uM LIN28A; native gel in 1x TBE at 4 C; details: protein: recombinant;recombinant; tags: N-term His6-GST (TEV cleavable), C-term twin-Strep;N-term His6-GST fusion; copies: 1;1; hairpin, 1 nt 3' overhang
# Chain of TUT7 (ZCCHC6);LIN28A (Q5VYS8 whole entry, the tested form may be a part, one chain of several): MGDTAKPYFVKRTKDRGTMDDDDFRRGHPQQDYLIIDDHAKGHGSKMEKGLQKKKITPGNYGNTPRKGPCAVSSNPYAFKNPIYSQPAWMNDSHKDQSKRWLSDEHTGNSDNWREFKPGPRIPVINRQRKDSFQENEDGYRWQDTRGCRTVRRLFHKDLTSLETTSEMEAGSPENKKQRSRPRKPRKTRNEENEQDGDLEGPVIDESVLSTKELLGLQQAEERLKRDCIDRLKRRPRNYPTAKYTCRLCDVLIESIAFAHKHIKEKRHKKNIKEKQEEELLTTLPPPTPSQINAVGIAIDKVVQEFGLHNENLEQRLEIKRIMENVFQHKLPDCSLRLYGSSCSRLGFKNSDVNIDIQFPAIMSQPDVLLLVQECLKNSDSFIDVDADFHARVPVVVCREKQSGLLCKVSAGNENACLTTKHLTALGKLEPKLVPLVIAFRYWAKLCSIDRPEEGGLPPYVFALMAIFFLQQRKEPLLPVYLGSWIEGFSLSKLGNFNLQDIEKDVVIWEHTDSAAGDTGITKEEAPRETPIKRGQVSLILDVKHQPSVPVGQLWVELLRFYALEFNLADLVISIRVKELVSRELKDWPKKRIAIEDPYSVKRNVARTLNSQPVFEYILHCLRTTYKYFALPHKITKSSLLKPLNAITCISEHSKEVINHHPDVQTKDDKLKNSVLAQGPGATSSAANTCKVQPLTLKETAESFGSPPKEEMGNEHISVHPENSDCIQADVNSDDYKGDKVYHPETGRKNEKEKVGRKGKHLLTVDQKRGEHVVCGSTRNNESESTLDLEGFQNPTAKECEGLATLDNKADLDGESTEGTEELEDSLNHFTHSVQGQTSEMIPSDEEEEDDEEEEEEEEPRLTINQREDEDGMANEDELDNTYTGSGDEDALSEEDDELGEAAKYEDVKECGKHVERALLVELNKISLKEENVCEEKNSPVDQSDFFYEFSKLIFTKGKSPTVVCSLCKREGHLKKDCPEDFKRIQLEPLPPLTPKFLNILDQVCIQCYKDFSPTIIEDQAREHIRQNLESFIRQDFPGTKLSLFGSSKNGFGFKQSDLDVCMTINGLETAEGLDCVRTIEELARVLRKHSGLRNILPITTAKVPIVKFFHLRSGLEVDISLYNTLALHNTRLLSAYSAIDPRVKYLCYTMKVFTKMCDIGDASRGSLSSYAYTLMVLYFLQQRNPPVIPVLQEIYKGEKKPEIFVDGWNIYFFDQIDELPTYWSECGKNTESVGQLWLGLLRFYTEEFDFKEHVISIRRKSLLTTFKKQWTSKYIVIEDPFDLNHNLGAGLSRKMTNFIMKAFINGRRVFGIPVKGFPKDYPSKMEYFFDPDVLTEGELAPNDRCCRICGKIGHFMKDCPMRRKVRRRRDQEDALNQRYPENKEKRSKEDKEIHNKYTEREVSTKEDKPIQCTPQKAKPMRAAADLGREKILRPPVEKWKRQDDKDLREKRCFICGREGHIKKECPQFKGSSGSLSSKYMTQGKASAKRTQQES
# TUT4 (ZCCHC11);LIN28A [2] = target: T1, TUT4 (ZCCHC11);LIN28A; assay: EMSA; 0.5 mM UTP, Ca2+, Zn2+; higher-order assemblies, concentration dependent; EMSA: 20 mM HEPES pH 7.8, 100 mM NaCl, 2 mM CaCl2, 50 uM ZnCl2, 5% glycerol, 5 mM DTT, 0.5 mM UTP, RNase inhibitor, on ice 30 min; 0.1 uM RNA, 0.2 uM TUT, 0.3 uM LIN28A; native gel in 1x TBE at 4 C; details: protein: recombinant;recombinant; tags: N-term His6-GST (TEV cleavable), C-term twin-Strep;N-term His6-GST fusion; copies: 1;1; label: 3' CY dye; hairpin, 1 nt 3' overhang
# [3] = target: T2, TUT4 K919/K920 mutant (ZK1);LIN28A; assay: EMSA; 0.5 mM UTP, Ca2+, Zn2+; higher-order assemblies seen; EMSA: 20 mM HEPES pH 7.8, 100 mM NaCl, 2 mM CaCl2, 50 uM ZnCl2, 5% glycerol, 5 mM DTT, 0.5 mM UTP, RNase inhibitor, on ice 30 min; 0.1 uM RNA, 0.2 uM TUT, 0.3 uM LIN28A; native gel in 1x TBE at 4 C; details: protein: recombinant;recombinant; tags: N-term His6-GST (TEV cleavable), C-term twin-Strep;N-term His6-GST fusion; copies: 1;1; label: 3' CY dye; hairpin, 1 nt 3' overhang
Binder,binding result (TUT4 (ZCCHC11);LIN28A [1]),binding result (TUT7 (ZCCHC6);LIN28A),binding result (TUT4 (ZCCHC11);LIN28A [2]),binding result [3]
B1,binds,binds,,
B2,,,binds,binds
